Data: the supplement of paper PMC10126150
± gives the standard deviation of the averaged measurements.

Tested on: ATP
Assay: switch fluorescence ratio, 500 uM ATP over buffer (Cy3 cluster intensity, sum of 5 cycles each) (fold (ratio)); higher = stronger signal-on switching upon ATP binding; sequences stand for … in TCGTCGGCAGCGTCAGATGTGTATAAGAGACAGTTTTTTTTTTTTTTTTTTTTTTTTT…TC
Conditions: aptamer strand: ATP DNA aptamer (quencher-CACCTGGGGGAGTATTGCGGAGGAAGG + anchor), 100 nM annealed; ATP concentration: 500 uM
In short: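 Imaging in selection buffer was followed by imaging after 15 min with 500 uM ATP at 22 °C, for Cy3-labelled switching-strand clusters annealed to 100 nM quencher-labelled ATP aptamer on a modified Illumina MiSeq flow-cell. Five of these buffer/ATP cycles ran, separated by NaOH stripping and re-annealing. The fluorescence ratio per cluster is summed target-cycle over summed buffer-cycle Cy3 intensity, averaged per switch-domain sequence; clusters outside 100-1000 RFU were removed.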
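Further: ATP exposure 15 min at 22 °C before imaging.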

Row | Sequence | switch fluorescence ratio
1 | TTCCCGGGGT | 1.2 ± 0.32
2 | GGCGTTTTAG | 0.998 ± 0.034
3 | AGAAATTTGG | 1.01 ± 0.02
4 | CAGGTTTTTG | 0.983 ± 0.028
5 | TCTATCATGA | 0.988 ± 0.013
6 | AGGTGAGGCA | 1.05 ± 0.097
7 | AAATCCCTAC | 1.06 ± 0.028
8 | TCAGTAATTT | 1.03 ± 0.032
9 | GCATAAGATG | 1 ± 0.024
10 | CAGAGATTAG | 0.996 ± 0.043
11 | GCATTAGGTT | 1.03 ± 0.019
12 | TTTAGGAGGT | 1.04 ± 0.049
13 | TCAAGGAGTT | 0.9773 ± 0.0047
14 | TTTTTCGGTA | 1.05 ± 0.038
15 | CTATTTAGCC | 1.02 ± 0.063
16 | AACGGACGGG | 1.27 ± 0.095
17 | TATTCAGGGG | 1.03 ± 0.058
18 | AGAGAGGACG | 1.02 ± 0.033
19 | ATGTTCGTAG | 0.989 ± 0.015
20 | CGGAAACATT | 1.04 ± 0.039
21 | ATACGAGGTC | 1.01 ± 0.03
22 | TCGTTATTGT | 1.01 ± 0.021
23 | GCAAGTAGGG | 1.02 ± 0.019
24 | TTAAGGGGA | 1.06 ± 0.11
25 | GTGTGACACG | 1.04 ± 0.064

Row | Sequence | switch fluorescence ratio
26 | AACGGAGTGC | 1 ± 0.045
27 | TAGGAGTAAT | 1.012 ± 0.0047
28 | AGACTGGGTT | 0.971 ± 0.012
29 | AGGCGGGCGT | 0.9623 ± 0.0022
30 | CTTTTAATTT | 1.04 ± 0.022
31 | AAAATCAAAT | 1.02 ± 0.019
32 | GTGGTGTATC | 1.02 ± 0.019
33 | ATAAAATTTT | 1 ± 0.03
34 | TCAGGGGTGG | 1 ± 0.058
35 | TCGAGAGAGG | 1.01 ± 0.049
36 | CAAGCTCTGT | 1.01 ± 0.016
37 | GTTGGGGGCC | 0.997 ± 0.013
38 | AATTGCATAA | 0.996 ± 0.04
39 | CAGTTTGTTA | 0.994 ± 0.036
40 | TCGGATAAGT | 1.01 ± 0.034
41 | CGAATCGGCT | 1.05 ± 0.054
42 | TTAGCTGGTG | 1.07 ± 0.067
43 | CTTTCTTG | 1.01 ± 0.043
44 | TCGAGAAGGT | 0.993 ± 0.054
45 | CAAGTTTGTA | 0.997 ± 0.021
46 | ACCATCGATA | 1.03 ± 0.024
47 | ACTTCTAACT | 1.07 ± 0.034
48 | ACAAGCTGAC | 1.27 ± 0.15
49 | TCGAAATATT | 1.55 ± 0.81
50 | GATACCCATA | 0.996 ± 0.016

Row | Sequence | switch fluorescence ratio
51 | GATATTGGTG | 1.024 ± 0.003
52 | ACGCTGGGGG | 1.06 ± 0.041
53 | ACTTTGTCTG | 0.991 ± 0.041
54 | GTTCAGATTG | 1.03 ± 0.0048
55 | TCTTGATCTA | 1.015 ± 0.0098
56 | TTTCTCAGTG | 0.969 ± 0.011
57 | ACTTGAAAAT | 1.002 ± 0.0095
58 | CGGTTTATGA | 0.968 ± 0.016
59 | GGAAATACGA | 1.27 ± 0.036
60 | ATATTGTCCA | 1.02 ± 0.0039
61 | GGGGGCGGGG | 1.01 ± 0.03
62 | TGAACATTTG | 1.03 ± 0.025
63 | TAATTTTTAA | 0.99 ± 0.029
64 | TATGCACTGA | 1.06 ± 0.024
65 | TTTAGAAGGA | 0.9796 ± 0.0067
66 | TTTGGTACCC | 1.01 ± 0.029
67 | TTAGCTGTTT | 0.995 ± 0.035
68 | GTTGTTAGCG | 1 ± 0.037
69 | ACGTTATTTA | 1.1534 ± 0.0011
70 | AAAAGTTCGT | 0.983 ± 0.024
71 | GGGAGGGTCT | 0.975 ± 0.016
72 | GTTTTTGCTT | 1.01 ± 0.032
73 | GACTGTTGTC | 0.9972 ± 0.0059
74 | GCGGCAGGGA | 0.997 ± 0.049
75 | ACCTCTTGGG | 0.9405 ± 0.0011

Row | Sequence | switch fluorescence ratio
76 | AGAGGATTTT | 1 ± 0.015
77 | TTGAGGGAGC | 1.09 ± 0.038
78 | GCCCTTGTCA | 1.01 ± 0.019
79 | CCGAGGGCGC | 1.2 ± 0.031
80 | AATGCCTTTT | 1.04 ± 0.037
81 | AATACTACTA | 1.05 ± 0.053
82 | AACGGTGGGG | 0.992 ± 0.034
83 | GTATGCCGTC | 0.988 ± 0.076
84 | GAAAGGGATT | 1 ± 0.048
85 | GGTGGTTGGC | 1.007 ± 0.0075
86 | CGTCTGGGCG | 0.957 ± 0.097
87 | ACTTCAAGGA | 1.04 ± 0.069
88 | TCGGTGGTGG | 0.997 ± 0.019
89 | TGGGATATA | 1.01 ± 0.056
90 | GCGGGGGGGT | 1.01 ± 0.038
91 | TAAAGAGAGA | 1.03 ± 0.012
92 | TAGGGGCCGT | 1.02 ± 0.05
93 | GGGGGGTGTG | 0.986 ± 0.025
94 | CGGGGCAAGG | 0.984 ± 0.057
95 | CAGAGGAGTG | 0.9738 ± 0.0038
96 | TCTGTAGTTG | 0.997 ± 0.04
97 | AATAGCTACT | 1.076 ± 0.01
98 | GGGGCTTGGA | 1 ± 0.017
99 | ACGTAATTTT | 1.17 ± 0.03
100 | AATGAGATCG | 1.01 ± 0.016

Row | Sequence | switch fluorescence ratio
101 | CGTTTTGGGC | 1.04 ± 0.033
102 | CTTAGAAGCA | 0.9943 ± 0.0017
103 | TCCTGCTGTT | 0.998 ± 0.02
104 | ATGTTTTCTG | 0.968 ± 0.04
105 | CCCCATTTTA | 1 ± 0.018
106 | GAGACGACCA | 1.15 ± 0.029
107 | TATTATGACC | 1.01 ± 0.043
108 | AGGAGGTGGC | 1.03 ± 0.017
109 | TTTAGCATAA | 1.23 ± 0.13
110 | GCTGGGGGAT | 1 ± 0.044
111 | TTTGTGTGGC | 0.99 ± 0.084
112 | ATAGACTGAG | 0.983 ± 0.012
113 | AGTAGACGAC | 1.03 ± 0.042
114 | AAAATTAAGA | 0.982 ± 0.025
115 | TTTAGGGATT | 1.03 ± 0.037
116 | GGTGGGGGTC | 1.02 ± 0.022
117 | CCCGAGTGGG | 0.992 ± 0.054
118 | GGGTATCGGG | 0.98857 ± 0.00067
119 | TTATAGAAGA | 1.01 ± 0.0082
120 | GGGTGAAATG | 0.994 ± 0.023
121 | TTGGTTCGCC | 1.003 ± 0.0097
122 | GCCTGTGGGG | 0.977 ± 0.019
123 | TTGAAGTGTG | 1.02 ± 0.015
124 | AAGTTGACCG | 1.04 ± 0.046
125 | ATAGTAGGGG | 0.994 ± 0.045

Row | Sequence | switch fluorescence ratio
126 | GGCAATTATG | 1.02 ± 0.025
127 | ATGTTCGGCG | 1.01 ± 0.036
128 | TTGGGGGCCC | 1.01 ± 0.033
129 | TCTAAGGATT | 1.02 ± 0.022
130 | GGCAATATGT | 1.24 ± 0.077
131 | GAAATATCAG | 1.01 ± 0.029
132 | AATGGCCAAG | 1 ± 0.0056
133 | CCAGCTTTTA | 1.09 ± 0.052
134 | CAACGTGTGG | 1.04 ± 0.072
135 | AAAGCCACGC | 1.11 ± 0.032
136 | CGGTGAGGGT | 0.9863 ± 0.0071
137 | TAGATATTGG | 1.01 ± 0.016
138 | ATGAGGCACG | 1.05 ± 0.068
139 | ACCCTCAAAA | 1.31 ± 0.031
140 | AGGAGGAGGG | 0.932 ± 0.021
141 | TTATAAAACC | 1.02 ± 0.028
142 | ATGAGGGCAG | 0.993 ± 0.018
143 | TGCTAGGGAT | 1.01 ± 0.029
144 | TATGAGGTCT | 1.02 ± 0.032
145 | ATAGGGTCGG | 1.02 ± 0.063
146 | GTTTTGGAGG | 0.9691 ± 0.0043
147 | TATTATTTGT | 0.994 ± 0.053
148 | GAGGGGGAAA | 1.02 ± 0.031
149 | TTCGTAGACT | 0.991 ± 0.017
150 | AAAAAAAATG | 0.9991 ± 0.0042

Row | Sequence | switch fluorescence ratio
151 | ACAGGGGTTA | 1.25 ± 0.4
152 | TTAAAAGCTT | 1.05 ± 0.024
153 | CTGGACCTTC | 1.66 ± 0.043
154 | CACAATTGGG | 1.01 ± 0.035
155 | TTGGGCTACG | 1.002 ± 0.0048
156 | GTGCGCGGCC | 1.01 ± 0.051
157 | TTTTTATAGT | 1.02 ± 0.022
158 | GCGAAAACAG | 1 ± 0.088
159 | AGAGTAGTGT | 0.99 ± 0.032
160 | TTAGGAATTT | 1.05 ± 0.075
161 | TGCCTAGTTT | 0.995 ± 0.064
162 | TTTTAGCCAG | 1.01 ± 0.032
163 | CGTCTAATAG | 1.18 ± 0.03
164 | GAATTGGCCT | 1.02 ± 0.019
165 | TGTTTGTCTT | 1 ± 0.069
166 | AGGGGGTCCG | 1.03 ± 0.049
167 | AGGGGGAGAG | 0.969 ± 0.013
168 | TTTGGACTGG | 1.01 ± 0.067
169 | ACACCCCCGT | 1.67 ± 0.19
170 | GGCATAAGGG | 1.03 ± 0.05
171 | CCTAGGGGGT | 1.02 ± 0.029
172 | AAGGGTGGAG | 0.996 ± 0.026
173 | GGTAAAGGGT | 0.991 ± 0.016
174 | CATGTTGGAG | 0.9924 ± 0.0053
175 | TTGAAGATAA | 1.02 ± 0.033

Row | Sequence | switch fluorescence ratio
176 | GGGGACGTGG | 0.965 ± 0.011
177 | CGGGGGGGGC | 1.02 ± 0.044
178 | TGTGCACATT | 1.02 ± 0.024
179 | GGATTTTTCA | 0.985 ± 0.013
180 | TTCAGGTACT | 1.06 ± 0.019
181 | TTAGTCAGGA | 1.04 ± 0.057
182 | TTGACGATGT | 1.17 ± 0.19
183 | AAGAGCAGGG | 0.975 ± 0.011
184 | CACTCTCTGA | 0.969 ± 0.045
185 | TGACCATTGC | 1.093 ± 0.0059
186 | AATGTTAAGT | 0.994 ± 0.022
187 | TTTTTCGG | 0.996 ± 0.025
188 | GGGAGTATTT | 1 ± 0.034
189 | TTTTACATTT | 1 ± 0.057
190 | ACGGGTTCCA | 1.08 ± 0.13
191 | CTACTATAGG | 0.9889 ± 0.0064
192 | TAATCGGGTT | 0.996 ± 0.017
193 | CTGGGTCGGC | 0.965 ± 0.04
194 | GGAGTTTGTG | 0.989 ± 0.014
195 | TTTTCATTAT | 1.046 ± 0.0066
196 | CATTAGGATG | 0.9941 ± 0.0021
197 | TGCGTTGGAG | 1.08 ± 0.057
198 | GGGGGGAGAT | 1.04 ± 0.077
199 | CGTTCAACTC | 1.04 ± 0.016
200 | CTTATTGGGT | 0.993 ± 0.011
